According to PMC4731831, “Better than Nature: Nicotinamide Biomimetics That Outperform Natural Coenzymes” (Journal of the American Chemical Society, 2016):

Substrate: NC(=O)C1=CN([C@@H]2O[C@H](COP(=O)(O)OP(=O)(O)OC[C@H]3O[C@@H](n4cnc5c(N)ncnc54)[C@H](OP(=O)(O)O)[C@@H]3O)[C@@H](O)[C@H]2O)C=CC1
Assay: purified protein
Details: reduction of cinnamaldehyde; varied: cofactor

B1: NtDBR (Nicotiana tabacum) (protein)
chain: MAEEVSNKQVILKNYVTGYPKESDMEIKNVTIKLKVPEGSNDVVVKNLYLSCDPYMRSRMRKIEGSYVESFAPGSPITGYGVAKVLESGDPKFQKGDLVWGMTGWEEYSIITPTQTLFKIHDKDVPLSYYTGILGMPGMTAYAGFHEVCSPKKGETVFVSAASGAVGQLVGQFAKMLGCYVVGSAGSKEKVDLLKSKFGFDEAFNYKEEQDLSAALKRYFPDGIDIYFENVGGKMLDAVLVNMKLYGRIAVCGMISQYNLEQTEGVHNLFCLITKRIRMEGFLVFDYYHLYPKYLEMVIPQIKAGKVVYVEDVAHGLESAPTALVGLFSGRNIGKQVVMVSRE
Question: With B1 as the protein, how does the Km read?
Answer: 91 µM

Question: What about the kcat of the same protein?
Answer: 40 min^–1
